Assay results published in US20200048360A1 (TRACON PHARMACEUTICALS, published 2020).
Like-named read-outs stand apart in the source and are kept apart here.

T1: human CD105 (R&D Systems, Catalog No. 1097-EN) (human, UniProt P17813 26-586)
T1 construct: Captured on the plate by mouse anti-human CD105 (Southern Biotechnologies 9811-01); also called endoglin
T1 sequence (looked up): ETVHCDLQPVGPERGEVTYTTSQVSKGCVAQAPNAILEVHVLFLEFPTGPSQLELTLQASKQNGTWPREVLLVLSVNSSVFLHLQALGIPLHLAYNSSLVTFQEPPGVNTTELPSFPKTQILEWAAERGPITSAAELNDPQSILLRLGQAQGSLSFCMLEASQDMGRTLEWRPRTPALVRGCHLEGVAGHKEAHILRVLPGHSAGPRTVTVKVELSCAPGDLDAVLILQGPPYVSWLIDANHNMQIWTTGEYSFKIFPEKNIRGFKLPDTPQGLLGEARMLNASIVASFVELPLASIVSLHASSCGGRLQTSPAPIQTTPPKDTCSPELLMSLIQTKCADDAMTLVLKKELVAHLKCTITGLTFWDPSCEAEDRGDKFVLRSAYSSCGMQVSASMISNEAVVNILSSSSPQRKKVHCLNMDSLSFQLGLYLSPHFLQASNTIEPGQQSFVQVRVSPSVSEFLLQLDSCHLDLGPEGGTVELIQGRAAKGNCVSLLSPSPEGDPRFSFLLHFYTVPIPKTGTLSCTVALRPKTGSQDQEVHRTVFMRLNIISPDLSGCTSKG


Tests used:
[1] = biological target: T1, human CD105 (R&D Systems, Catalog No. …); test: competition ELISA on captured human CD105; competitor biotinylated chimeric anti-CD105
Procedure: Antibodies were tested in a competition ELISA for binding to CD105 against biotinylated chimeric anti-CD105. Briefly, chimeric anti-CD105 was biotinylated using a micro-biotinylation kit (Sigma, Catalog No. BTAG-1KT) following the manufacturer's instructions. […] Binding of the biotinylated chimeric antibody was detected via streptavidin-HRP (Sigma, Catalog No. 55512) and TMB substrate (Sigma, Catalog No. T0440). OD450 nm values were measured on a Dynex MRX TCII plate reader. The results of the competition analysis are illustrated in FIGS. 7 and 8. […] To allow for comparisons within and between experiments, IC50 values of humanized or humanized/deimmunized variants were normalized against the reference antibody that was included on each plate to give a value for the fold difference. IC50 values are relative to chimeric anti-CD105 and are representative of three experiments. Summary ELISA data are presented in Table 1 and include antibody expression levels […]) as assayed in saturated static cultures.

[2] = biological target: T1, human CD105 (R&D Systems, Catalog No. …); test: ELISA with OD450 falling against test antibody concentration (competition format of paragraph 712: biotinylated chimeric anti-CD105 on captured human CD105; the legend says only 'binding assay data')
[3] = biological target: T1, human CD105 (R&D Systems, Catalog No. …); test: as above; remark: listed apart in the source
[4] = biological target: T1, human CD105 (R&D Systems, Catalog No. …); test: as above; remark: listed apart in the source

Binder | Relative IC50 (fold of chimeric anti-endoglin antibody) [1] | other results
VK2AAVH1Q (antibody, V domains shown, IgG1 heavy chain, kappa light chain) VH: EVQLVESGGGLVKPGGSLRLSCAASGFTFSDAWMDWVRQAPGKGLEWVGEIRSQASNHATYYAESVKGRFTISRDDSKNTLYLQMNSLKTEDTAVYYCTRWRRFFDSWGQGTLVTVSS VL: DIQLTQSPSSLSASVGDRATITCRASSSVSYMHWYQQKPGKAPKPWAYATSNLASGVPSRFSGSGSGTDYTLTISSLQPEDFATYYCQQWSSNPLTFGGGTKVEIK | 0.76 fold relative to chimeric | IC50 (read off the curve) [2]: ~0.1 µg/mL; IC50 (read off the curve) [3]: ~0.1 µg/mL
VK2AAVH1R (antibody, V domains shown, IgG1 heavy chain, kappa light chain) VH: EVQLVESGGGLVKPGGSLRLSCAASGFTFSDAWMDWVRQAPGKGLEWVGEIRSRASNHATYYAESVKGRFTISRDDSKNTLYLQMNSLKTEDTAVYYCTRWRRFFDSWGQGTLVTVSS VL: DIQLTQSPSSLSASVGDRATITCRASSSVSYMHWYQQKPGKAPKPWAYATSNLASGVPSRFSGSGSGTDYTLTISSLQPEDFATYYCQQWSSNPLTFGGGTKVEIK | 0.61 fold relative to chimeric | IC50 (read off the curve) [2]: ~0.1 µg/mL; IC50 (read off the curve) [4]: ~0.1 µg/mL
VK2ASVH1A (antibody, V domains shown, IgG1 heavy chain, kappa light chain) VH: EVQLVESGGGLVKPGGSLRLSCAASGFTFSDAWMDWVRQAPGKGLEWVAEIRSKASNHATYYAESVKGRFTISRDDSKNTLYLQMNSLKTEDTAVYYCTRWRRFFDSWGQGTLVTVSS VL: DIQLTQSPSSLSASVGDRATITCRASSSVSYMHWYQQKPGKAPKPWIYASSNLASGVPSRFSGSGSGTDYTLTISSLQPEDFATYYCQQWSSNPLTFGGGTKVEIK | 1.41 fold relative to chimeric | 
VK2ASVH1Q (antibody, V domains shown, IgG1 heavy chain, kappa light chain) VH: EVQLVESGGGLVKPGGSLRLSCAASGFTFSDAWMDWVRQAPGKGLEWVGEIRSQASNHATYYAESVKGRFTISRDDSKNTLYLQMNSLKTEDTAVYYCTRWRRFFDSWGQGTLVTVSS VL: DIQLTQSPSSLSASVGDRATITCRASSSVSYMHWYQQKPGKAPKPWIYASSNLASGVPSRFSGSGSGTDYTLTISSLQPEDFATYYCQQWSSNPLTFGGGTKVEIK | 1.04 fold relative to chimeric | 
VK2ASVH1R (antibody, V domains shown, IgG1 heavy chain, kappa light chain) VH: EVQLVESGGGLVKPGGSLRLSCAASGFTFSDAWMDWVRQAPGKGLEWVGEIRSRASNHATYYAESVKGRFTISRDDSKNTLYLQMNSLKTEDTAVYYCTRWRRFFDSWGQGTLVTVSS VL: DIQLTQSPSSLSASVGDRATITCRASSSVSYMHWYQQKPGKAPKPWIYASSNLASGVPSRFSGSGSGTDYTLTISSLQPEDFATYYCQQWSSNPLTFGGGTKVEIK | 1.02 fold relative to chimeric | 
VK2ASVH1S (antibody, V domains shown, IgG1 heavy chain, kappa light chain) VH: EVQLVESGGGLVKPGGSLRLSCAASGFTFSDAWMDWVRQAPGKGLEWVSEIRSKASNHATYYAESVKGRFTISRDDSKNTLYLQMNSLKTEDTAVYYCTRWRRFFDSWGQGTLVTVSS VL: DIQLTQSPSSLSASVGDRATITCRASSSVSYMHWYQQKPGKAPKPWIYASSNLASGVPSRFSGSGSGTDYTLTISSLQPEDFATYYCQQWSSNPLTFGGGTKVEIK | 1.31 fold relative to chimeric | 
VK2SAVH1A (antibody, V domains shown, IgG1 heavy chain, kappa light chain) VH: EVQLVESGGGLVKPGGSLRLSCAASGFTFSDAWMDWVRQAPGKGLEWVAEIRSKASNHATYYAESVKGRFTISRDDSKNTLYLQMNSLKTEDTAVYYCTRWRRFFDSWGQGTLVTVSS VL: DIQLTQSPSSLSASVGDRVTISCRASSSVSYMHWYQQKPGKAPKPWAYATSNLASGVPSRFSGSGSGTDYTLTISSLQPEDFATYYCQQWSSNPLTFGGGTKVEIK | 0.49 fold relative to chimeric | 
VK2SAVH1A2 (antibody, V domains shown, IgG1 heavy chain, kappa light chain) VH: EVQLVESGGGLVKPGGSLRLSCAASGFTFSDAWMDWVRQAPGKGLEWVGEARSKASNHATYYAESVKGRFTISRDDSKNTLYLQMNSLKTEDTAVYYCTRWRRFFDSWGQGTLVTVSS VL: DIQLTQSPSSLSASVGDRVTISCRASSSVSYMHWYQQKPGKAPKPWAYATSNLASGVPSRFSGSGSGTDYTLTISSLQPEDFATYYCQQWSSNPLTFGGGTKVEIK | 0.84 fold relative to chimeric | 
VK2SAVH1Q (antibody, V domains shown, IgG1 heavy chain, kappa light chain) VH: EVQLVESGGGLVKPGGSLRLSCAASGFTFSDAWMDWVRQAPGKGLEWVGEIRSQASNHATYYAESVKGRFTISRDDSKNTLYLQMNSLKTEDTAVYYCTRWRRFFDSWGQGTLVTVSS VL: DIQLTQSPSSLSASVGDRVTISCRASSSVSYMHWYQQKPGKAPKPWAYATSNLASGVPSRFSGSGSGTDYTLTISSLQPEDFATYYCQQWSSNPLTFGGGTKVEIK | 0.87 fold relative to chimeric | 
VK2SAVH1R (antibody, V domains shown, IgG1 heavy chain, kappa light chain) VH: EVQLVESGGGLVKPGGSLRLSCAASGFTFSDAWMDWVRQAPGKGLEWVGEIRSRASNHATYYAESVKGRFTISRDDSKNTLYLQMNSLKTEDTAVYYCTRWRRFFDSWGQGTLVTVSS VL: DIQLTQSPSSLSASVGDRVTISCRASSSVSYMHWYQQKPGKAPKPWAYATSNLASGVPSRFSGSGSGTDYTLTISSLQPEDFATYYCQQWSSNPLTFGGGTKVEIK | 0.77 fold relative to chimeric | 
VK2SAVH1S (antibody, V domains shown, IgG1 heavy chain, kappa light chain) VH: EVQLVESGGGLVKPGGSLRLSCAASGFTFSDAWMDWVRQAPGKGLEWVSEIRSKASNHATYYAESVKGRFTISRDDSKNTLYLQMNSLKTEDTAVYYCTRWRRFFDSWGQGTLVTVSS VL: DIQLTQSPSSLSASVGDRVTISCRASSSVSYMHWYQQKPGKAPKPWAYATSNLASGVPSRFSGSGSGTDYTLTISSLQPEDFATYYCQQWSSNPLTFGGGTKVEIK | 0.96 fold relative to chimeric | 
VK2SSVH1A2 (antibody, V domains shown, IgG1 heavy chain, kappa light chain) VH: EVQLVESGGGLVKPGGSLRLSCAASGFTFSDAWMDWVRQAPGKGLEWVGEARSKASNHATYYAESVKGRFTISRDDSKNTLYLQMNSLKTEDTAVYYCTRWRRFFDSWGQGTLVTVSS VL: DIQLTQSPSSLSASVGDRVTISCRASSSVSYMHWYQQKPGKAPKPWIYASSNLASGVPSRFSGSGSGTDYTLTISSLQPEDFATYYCQQWSSNPLTFGGGTKVEIK | 1.03 fold relative to chimeric | 
VK2SSVH1Q (antibody, V domains shown, IgG1 heavy chain, kappa light chain) VH: EVQLVESGGGLVKPGGSLRLSCAASGFTFSDAWMDWVRQAPGKGLEWVGEIRSQASNHATYYAESVKGRFTISRDDSKNTLYLQMNSLKTEDTAVYYCTRWRRFFDSWGQGTLVTVSS VL: DIQLTQSPSSLSASVGDRVTISCRASSSVSYMHWYQQKPGKAPKPWIYASSNLASGVPSRFSGSGSGTDYTLTISSLQPEDFATYYCQQWSSNPLTFGGGTKVEIK | 1.21 fold relative to chimeric | 
VK2SSVH1R (antibody, V domains shown, IgG1 heavy chain, kappa light chain) VH: EVQLVESGGGLVKPGGSLRLSCAASGFTFSDAWMDWVRQAPGKGLEWVGEIRSRASNHATYYAESVKGRFTISRDDSKNTLYLQMNSLKTEDTAVYYCTRWRRFFDSWGQGTLVTVSS VL: DIQLTQSPSSLSASVGDRVTISCRASSSVSYMHWYQQKPGKAPKPWIYASSNLASGVPSRFSGSGSGTDYTLTISSLQPEDFATYYCQQWSSNPLTFGGGTKVEIK | 0.62 fold relative to chimeric | 
VK2SSVH1S (antibody, V domains shown, IgG1 heavy chain, kappa light chain) VH: EVQLVESGGGLVKPGGSLRLSCAASGFTFSDAWMDWVRQAPGKGLEWVSEIRSKASNHATYYAESVKGRFTISRDDSKNTLYLQMNSLKTEDTAVYYCTRWRRFFDSWGQGTLVTVSS VL: DIQLTQSPSSLSASVGDRVTISCRASSSVSYMHWYQQKPGKAPKPWIYASSNLASGVPSRFSGSGSGTDYTLTISSLQPEDFATYYCQQWSSNPLTFGGGTKVEIK | 1.21 fold relative to chimeric | 
